{"source": "the nanobody polyreactivity screen of Harvey et al. (2022)", "data": [{"experiment": "yeast display, Sf9 membrane polyspecificity reagent, FACS + sequencing; frameworks hold sequencing errors", "how_it_was_run": "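Nanobodies from a synthetic yeast display library (Saccharomyces cerevisiae BJ5465), induced 36–48 hours with galactose, were stained 1 hour at 4 °C with 10% biotinylated, detergent-solubilized Sf9 membrane reagent, enriched on streptavidin microbeads, then FACS-sorted. Anti-HA (expression) and streptavidin (reagent binding) fluorescence set low and high (top ~1%) gates. Polyreactivity labels come from the gate of origin. Genes were colony-PCR amplified, MiSeq 2 × 250 sequenced and filtered by CDR length.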", "values": [{"sequence": "QVQHVESGGVLVQAGGSLRLSCAASGSIFVIYAMGWYRQAPGQEWELVAAINRGSTNYADSVKGRFTISRDNAKNTVYLQMNSLKPEDTAVYYCAAYGRYGFGRVERYDYWGLGTQVTVSS", "polyreactivity (PSR sort gate)": "high polyreactivity"}, {"sequence": "QVQHVESGGVLVQAGGSLRLSCAASGSTFARNALGWYRQAPGKETELVAAITTRGSSTYYADSVKGRFTISRDKAKNTVYLQLYSLKPEDTAVYYCAAVSRRSWYWGGYRQNGMGYWGQGTQVTVSS", "polyreactivity (PSR sort gate)": "high polyreactivity"}, {"sequence": "QVQHVESGICLVQAGGSLRLSCAASGGTVTPYAMGWYRQAPGKERELVAAISRYGARTYYADSVKGRFTISRDNANNNVFLEMNSLKPEVSAVYYCAARWYARTYVRGGMVYWRQGTQVTVSS", "polyreactivity (PSR sort gate)": "high polyreactivity"}, {"sequence": "QVQHVESGLGLDQAAGSLRLSSAASGFIFWYSSMGWYREARGKERELVAAITGGAITYYADSVKGRFTITRDNAKNTVYLPMNSLIPEDTAVYYGADELTLGRFRYDYWGQGTQVTVSA", "polyreactivity (PSR sort gate)": "high polyreactivity"}, {"sequence": "QVQHVESGRGLVQAGGRLRLSCADSGMTFGYSAMGWYRPAPGKDRELVAAISGTAGDTYYADSVKGRFTISRDNAKNTVYLQMNSLKAEVTAVYYCAKVKRWFGVTIELDYWGQGTQGTVSS", "polyreactivity (PSR sort gate)": "low polyreactivity"}, {"sequence": "QVQHVESGRGLVQAGGSLRLSCAASGGTFNRYAMGWYRQAPGKERELVAAITSSGGSTYYADSVKGRFTISRDNAMNTVYLHMNSLNPEDTAVYYCNAPGFRRLWGLGYDYWGQGTQVTVSS", "polyreactivity (PSR sort gate)": "high polyreactivity"}, {"sequence": "QVQHVESGRGLVQAGGSLRLSCAASGRISYYYAMGWSRQAPGKEMELVAAITNVGGTYYADSVKGRFTISRDNAKNTVYLQMNSLKQEDTAVFYCAKDFPARHNYWYSSRFFDYWGQGTQGTVSS", "polyreactivity (PSR sort gate)": "low polyreactivity"}, {"sequence": "QVQHVESGRGLVQAGGSLRLSCAAYGRIPYKAMGWYKQAPGKERELVAAISRSGTRTYYADSVKGRYTISRDNAKNTVYLQMISLKPQDTAVYYCAAPVSGYSSDYWGQGTQVTVSS", "polyreactivity (PSR sort gate)": "high polyreactivity"}, {"sequence": "QVQHVESGVGLVQAGGRLRLSCAASGRTFSSNAMGWYRKAPGKERELVAAISSSGGRTYYADSVKGRFTISRDNAKNTVYLDMNSLKQEDTAVYYCAVVYFPIWASYPYWWEYDYWGHGTQVTVSS", "polyreactivity (PSR sort gate)": "high polyreactivity"}, {"sequence": "QVQHVESGVGLVQAGGSLRLSCAASGFTFGWYAMGWYRQAPGKERELVASISWSGSTTYYADSVKGRFTISRDIAKNTVYLQMNSLKPEDTAVYYCNARRSYVRNDFDYWGQGTQVTVSS", "polyreactivity (PSR sort gate)": "high polyreactivity"}, {"sequence": "QVQHVESGVGLVQAGGSLRLSCAASGITFLDTVLGWYRHAPAKEWELVADINSIGTSTSYADSVKGRFTISRDNAKNTVYLQMISLKPEDTADYYCAATSYARLAYYYGGQGTQVTVSS", "polyreactivity (PSR sort gate)": "low polyreactivity"}, {"sequence": "QVQHVESGVGLVQAGGSLRLSCASSGLTFQYYSMGWYRQAPGKERELVAAISRRGGSTYYADSVKGRFTISRDNAKNTVYLQMNSLKPEDTAVYYCARYSYRGTNVRYDYWGQGTQVTVSS", "polyreactivity (PSR sort gate)": "high polyreactivity"}, {"sequence": "QVQHVESRGGLDPAGGSLRLSCAASGRIFRGNAMGWSSQATGKERELVASITWRGTSTYYADSVKGRFTISRDIAMNTVYLQMNSLKPEDTAVYYCNAVTQTRGYYWGQGTQVTVSS", "polyreactivity (PSR sort gate)": "high polyreactivity"}, {"sequence": "QVQHVESRGGLVQAGGSLRLSCAASGNTFWYNAMGWYRQAPGKERELVAAITTSDFGTYYADSVKGRFTISRDNAKNTVYLQMNSLKPEDTAVYYCAAEVYTQRPYYYPAYDYWGQGTQVTVSS", "polyreactivity (PSR sort gate)": "high polyreactivity"}, {"sequence": "QVQHVESVGGLDQAGGSLRLSSAASGRTFYLYAMGWYRQATGKEREFVADINSSGGSTYYADSVKGRFTISRDNAKNTVYLQMNSLKPEDTAVYYCAAYPIPRGRDYWGQGTQVTVSS", "polyreactivity (PSR sort gate)": "low polyreactivity"}, {"sequence": "QVQHVESVGGLDQAGRSLRLSCAASGSTFTPYAMGWYRQAPGKESELVAGITGNGGSTRYADSVKGRFTISRDNAKKTVYLQMNSLKPEDTAVYYCAARWTRQRYRTSYYSWGQGTQVTVSS", "polyreactivity (PSR sort gate)": "high polyreactivity"}, {"sequence": "QVQHVESVGGLLQAGCSLRLSCAPSGRIFGENAIGWYRQAPGKEREFLAVISISDASTYYADSVKGRFTISRDNAKNTGYLQMNSLKPDDTAVYYCAADLTDFLYVASDYWGQGTQVTVSS", "polyreactivity (PSR sort gate)": "low polyreactivity"}, {"sequence": "QVQHVESVGGLVQAGGSLPLSCDASGSIFGPNAMGWYRQAPGKESELVAAISGSGGSTYYADSVKGRFTISRDNAKNTVYLQMNSLKPEATAVYYCAADLDGTLSVYDYHTTGDDYWGQGTQVTVSS", "polyreactivity (PSR sort gate)": "low polyreactivity"}, {"sequence": "QVQHVESVGGLVQAGGSLRLSCAASGFIFRRYVMGWNRQAPGKERELVAAISYGGGSTYYADSVKGRFTISRDNAKNTVYLQMNCLKPEDTAVYYCNAVSYNLAAYEYWGQGTQVTVSS", "polyreactivity (PSR sort gate)": "high polyreactivity"}, {"sequence": "QVQHVESVGGLVQAGGSLRLSCAASGFISDWYAMGWYRQAPGKERELVATIDWIGGSTYADSVKGRFTISRDNAKNTVYLQMNSLKPEDTAVYYCAADSYFIAWYGAHYAYDYWGQGTQVTVSS", "polyreactivity (PSR sort gate)": "low polyreactivity"}, {"sequence": "QVQHVESVGGLVQAGGSLRLSCAASGSIFDDYAMGWYRPAPGKERELVAAISSSGTSTYYADSVKGRFTISRDNAKNTVYLQMNSLKPEDTAVYYCAARSAILKSGYLMDYWGQGTQVTVSS", "polyreactivity (PSR sort gate)": "low polyreactivity"}, {"sequence": "QVQHVETGGGLVQAGCSLRLSCAASGRTFLWNAMGWYRQERGNERELGARINLSGGRTYYADSVKGRFTISRDNAKNSVYLQMNSLKPEETAVYYCAAPVVRYRRDSWGQGTQVTVSS", "polyreactivity (PSR sort gate)": "low polyreactivity"}, {"sequence": "QVQHVQSGGGLVQAGGSLRLSCAAAGFIYNNAMGWYRQAPGKETELVATISTSGTDTYYADSVKGRFTISRDNAKNTVYLQMNSLKPEDTAVYYCNADTEIYDSYSSYWTRYEYWGQGTQVTVSS", "polyreactivity (PSR sort gate)": "low polyreactivity"}, {"sequence": "QVQIEESGGGLVQAGGSLPLSCAASGTIFKYYTRGWYRLAPGKERELFAAISGSGGTTYYADSVKGRFTISRDNAKNTVYLQMNSLKPEDTAVYYCATAYYRAFRGDYWGQGTQVTVSS", "polyreactivity (PSR sort gate)": "high polyreactivity"}, {"sequence": "QVQIEESGGGLVQAGGSLRLSCAASGSTFGYYAMGWYRQAPGKERELVAAISRGGSTYYADSVKGRFTISRDIAKYTVYLQMHSLKPEDTAVYYCNAVRYLEYDWGQGTQVTVSS", "polyreactivity (PSR sort gate)": "high polyreactivity"}, {"sequence": "QVQILESGGGLVQAGVSLRLSCAPSGSTFSRNAMAWYRQAPGKERELVAAISSSGGRTYYAESVKVRFTISRDNAKNTVYLQMNSLTPEDTAVYYCAAAFSLGMYWGQGTLVTVSS", "polyreactivity (PSR sort gate)": "high polyreactivity"}, {"sequence": "QVQIVDSGGGLVHAGGSLRLSCADSGSIFSGNAKAWYIQATGKERELVAAISRSGGSTYYADSVKGRFTISRDNAKNTVYLQMNSLKPEDTAVYYCNAGRYRAGGWGVGEGYWGQGTQVTVSS", "polyreactivity (PSR sort gate)": "high polyreactivity"}, {"sequence": "QVQIVDSGGGLVQAGGSLRLSCDASGRLISRKAMGWYRQAPGKERELVAAITSGGSTYYADSVKGRFTISRDNAKNTVYLQMNSLKPEDTAVYYCAAVYRGVDSRWYCYDYWGQGTQVTVSS", "polyreactivity (PSR sort gate)": "low polyreactivity"}, {"sequence": "QVQIVESGAGLVQAGGSLRISCAASGRIFRYYAMGWYRQAPGKERELVAAITVSGGSKYYADSVKGRFTISRDNAKNTVYLQMNSLKPEDTAVYYCAKALRSYLFIHFDYWVQGTQVTVSS", "polyreactivity (PSR sort gate)": "low polyreactivity"}, {"sequence": "QVQIVESGGALYQAGGSLRLICAASGSTFSQYAMGWYRQEPGKERELLPTINSGGSTNYADSVKGRFTISRDNAMNTVYLQMNSLKPEETAVYYCAAREDLYLYYNGQRVQYDYWGQGTQVTVSS", "polyreactivity (PSR sort gate)": "low polyreactivity"}, {"sequence": "QVQIVESGGCLVQAGGSLRLSCAASGRTFGRNAMGWYRQAPGKERELVAGISIGGGTTYYADSVKGRFTISRDNAKNTVYLQMNSLKPEDTAVYYCAARSWSYLHRYGYWGQGTQVTVSS", "polyreactivity (PSR sort gate)": "high polyreactivity"}, {"sequence": "QVQIVESGGGLLQAGGSLPLTCAASGSTFDDNAQGWYRLAPGKERELVAAISYSGGSTYYADSVKGRFTISRDNAKNTVYLQMNSLKPEDPAVYYCAADDLYTDYETWWRRGDYWGQGTQVTVSS", "polyreactivity (PSR sort gate)": "low polyreactivity"}, {"sequence": "QVQIVESGGGLVQAGASLSLSCAASGSIFGTNAMGWYRQAPGKERELVAAISSAGASTYYADSVKGRFTISRDNAKNTVYLQMNSLKPEDTAVYYCARGYTYQSSSFYYWGQGTQVTVSS", "polyreactivity (PSR sort gate)": "low polyreactivity"}, {"sequence": "QVQIVESGGGLVQAGGNLRLSCAASGFIFTRYAMGWYRQAPGKERELVAAISTSVDRTYYADSVKGRFSISRDNAKNTVYLQMNSLKPEDTAVYYCAVVRPRSVGRYDYWGQGTQVTVSS", "polyreactivity (PSR sort gate)": "high polyreactivity"}, {"sequence": "QVQIVESGGGLVQAGGSLPLSCDASGITFERYDMGWYRQAPGKERELGAAISTTGGRTYYADSVKGRFTISRDNAKNSVYLQMNSLKPEDTAVYYCAARYTTRRRYDYWGQGTQVTVSS", "polyreactivity (PSR sort gate)": "high polyreactivity"}, {"sequence": "QVQIVESGGGLVQAGGSLRISCAASGFIFNRYAMGWYRQAPGTERELVADITGGSTYFADSVKGRFTISRDNAKNTVYLLMKSLKPEDTAVYYCAADVLRISTLLFRGPGFDYWGQGTQVTVSS", "polyreactivity (PSR sort gate)": "low polyreactivity"}, {"sequence": "QVQIVESGGGLVQAGGSLRLSCAASGFIFDFYTMGWYRQAPGKERELVAAITWSGDSTYYADSVKGRFTISRDNAKNTVYLQMNSLKPEDTGVYYCAADWWGVWYFDYDYWGQGTQVTVSS", "polyreactivity (PSR sort gate)": "low polyreactivity"}, {"sequence": "QVQIVESGGGLVQAGGSLRLSCAASGFIFDYNAMGWYRQAPGKERELVAAISYSGGRTSYADSVKGRFTISRDNAKNTVYLQMNSLKPEDTAVYYCAKDNYVDFGGYYYPRMYYWGQGTQVTVSS", "polyreactivity (PSR sort gate)": "high polyreactivity"}, {"sequence": "QVQIVESGGGLVQAGGSLRLSCAASGFIFNIYAMGWYRQAPGKERELVAAITFSGGSTYYADSVKGRFTISRDNAKNTVYFQMNSLKPEDTAVYYCAADYLSEYTTYDYWGQGTQVTVSS", "polyreactivity (PSR sort gate)": "low polyreactivity"}, {"sequence": "QVQIVESGGGLVQAGGSLRLSCAASGFTFGVYAMGWYRQAPGKERELVAAISVSGGRTYYADSVKGRFTISRDNAKNTVYLQMNSLKPEDTAVYYCAADLGLKTSSRRTSMYYWGQGTQVTVSS", "polyreactivity (PSR sort gate)": "high polyreactivity"}, {"sequence": "QVQIVESGGGLVQAGGSLRLSCAASGFTLHRNAMGWYRQAPGKERELVANISWTGGSTYYADSVKGRFTISRDNAKNTVYLQMNSLKPEDTAVYYCAARGHWSIYGYYYLGATAFGYWGQGTQVTVSS", "polyreactivity (PSR sort gate)": "low polyreactivity"}, {"sequence": "QVQIVESGGGLVQAGGSLRLSCAASGGTFLPYAMGSYRQAPGKERELVATITLIGDSTYYADSVKGRFTISRDNAKNTVYLQMNSLKPEDTAVYYCAARPVTSYAYGSWGQGSQVTVSS", "polyreactivity (PSR sort gate)": "low polyreactivity"}, {"sequence": "QVQIVESGGGLVQAGGSLRLSCAASGIIFYYYAMGWYRPAPGKERELVAGISYSGGSTYADSVKGLFTISRDNAKNTVYLQMNSLKPEDTAVYDCAADYDYGGHWYDYWGQGTQVTVSS", "polyreactivity (PSR sort gate)": "low polyreactivity"}]}]}
